Reference: article PMC3581573 (PLoS ONE, 2013)

B1: Recombinant Xenopus laevis MEP50 alone (natural protein, UniProt Q6NUD0 1-333, looked up)
chain: MSKGSAWGRPVTAPACMEVQIGAVRYRRDGALLLAASSLSSRTWGGSIWVFKDPEGAPNESLCTAGVQTEAGVTDVAWVSEKGILVASDSGAVELWEILEKESLLVNKFAKYEHDDIVKTLSVFSDGTQAVSGGKDFSVKVWDLSQKAVLKSYNAHSSEVNCVAACPGKDTIFLSCGEDGRILLWDTRKPKPATRIDFCASDTIPTSVTWHPEKDDTFACGDETGNVSLVNIKNPDSAQTSAVHSQNITGLAYSYHSSPFLASISEDCTVAVLDADFSEVFRDLSHRDFVTGVAWSPLDHSKFTTVGWDHKVLHHHLPSEGRTENLIATKAED
notes: MEP50, Xenopus laevis; recombinant protein used without PRMT5; also called XlMEP50; Xenopus MEP50
B2: Xenopus laevis PRMT5 (enzyme, UniProt Q6NUA1 1-633, looked up)
chain: MAAGDGGRVSSGRDVACVTEVADTLGAMANQGFDFLCMPIFHPRFKREFYKEPAKSRPGPQTRSDLLLSGRDWNTLIVGKLSDWIKTDSEVSRIRKTSEAAMQQELNFSAYLGLPAFLIPLKQEDNSNLSRLLINHIHVGHHSTMFWMRVPLMAPNDLRDDLIENEPISLSEEDNSGEERTWIWWHNFRSLCDYNKKIALAIEIGADLPSGHVIDRWLGEPIKAAFLPTSIFLTNKKGFPVLTKVHQRLIFKLFKLEVQFVISGSHHHSEKDLCSYLQYLEYLSQNSPPPNAYEMFAKGYEDYLQSPLQPLMDNLESQTYEVFEKDPVKYSQYQQAVYKCLLDRVPEEEKETNIQILMVLGAGRGPLVNASLRAAKQAERKIKVYAVEKNPNAVITLEGWRYEEWGSQVTVVSGDMREWKAPEKADIIVSELLGSFGDNELSPECLDGAQHFLKDDGVSIPGEYTSYLAPISSSKLYNEVRACREKDRDPEAQFEMPYVVRLHNFHQLSDPLPCFTFHHPNKDDVIDNNRYCCLQYRVDLNTVLHGFAGYFNTVLYKDVTLSICPESHSPGMFSWFPILFPIKQPIPMREGDTVCVRFWRCNNGKKVWYEWAVTSPVCSAIHNPTGRSYTIGL
notes: Protein arginine methyltransferase 5 (PRMT5), Xenopus laevis, full-length, as the PRMT5 chain of the crystallised XlPRMT5-MEP50 complex; The complex was purified on Ni-NTA, so one or both chains probably carry a His tag; A selenomethionine form was used for phasing; also called XlPRMT5; source: Hi5 cells, baculovirus, co-expressed with MEP50, purified (Ni-NTA, Superdex 200)

Legend:
[1] = molecular target: T1, Recombinant Flag-tagged human PRMT5 (human, UniProt O14744 1-637); experiment: pull-down; XlMEP50 and Flag-HsPRMT5 (both 50 nM) on anti-Flag M2 agarose in TBS, 4°C, 2 hours; eluate immunoblotted for PRMT5 and MEP50; control: MEP50 without PRMT5; conditions: both partners purified
T1 construct: Protein arginine methyltransferase 5 (PRMT5), human; also called Flag-HsPRMT5; HsPRMT5; source: bought: SinoBiologicals (expressed in 293 cells)
T1 sequence (O14744 whole entry): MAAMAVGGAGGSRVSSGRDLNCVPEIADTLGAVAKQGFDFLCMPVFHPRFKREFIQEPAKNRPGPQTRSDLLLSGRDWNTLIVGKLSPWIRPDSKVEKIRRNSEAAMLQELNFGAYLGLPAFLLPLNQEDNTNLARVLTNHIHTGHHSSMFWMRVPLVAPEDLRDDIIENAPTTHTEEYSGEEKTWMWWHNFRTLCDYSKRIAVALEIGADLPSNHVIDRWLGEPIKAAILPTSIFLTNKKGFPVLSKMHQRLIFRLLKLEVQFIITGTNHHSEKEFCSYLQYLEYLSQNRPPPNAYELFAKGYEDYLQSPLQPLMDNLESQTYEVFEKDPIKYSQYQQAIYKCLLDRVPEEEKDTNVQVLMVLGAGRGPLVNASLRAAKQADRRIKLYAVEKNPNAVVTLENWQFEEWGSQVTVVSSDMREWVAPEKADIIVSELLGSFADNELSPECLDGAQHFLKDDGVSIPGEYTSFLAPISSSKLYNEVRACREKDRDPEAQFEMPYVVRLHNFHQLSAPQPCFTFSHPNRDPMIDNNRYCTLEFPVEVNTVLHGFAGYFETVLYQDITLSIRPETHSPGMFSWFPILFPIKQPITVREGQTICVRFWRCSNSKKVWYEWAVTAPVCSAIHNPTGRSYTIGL

[2] = molecular target: the molecule itself; experiment: crystal structure; XlPRMT5-MEP50 co-crystallised with 1 mM SAH; 30%–40% MPD, 100 mM Bis-Tris pH 5.5, 18°C; 3.0 Å

Row | Binder | binding result [1] | stoichiometry N [2]
1 | B1 | binds | 
2 | B2 |  | 4
